Patent US8357523B2, “Beta-glucosidase variant enzymes and related polynucleotides” (Codexis, Inc., priority 2009, dated 2013)

Assay: High throughput cellobiose assay: fold improvement in cellobiase activity of CelA variants over a control enzyme (Tables 2A-2D, 3, 5, 6, 7)
Type: biochemical
Conditions: 3.3 g/l cellobiose, 55° C. and pH 6.0

B1: 112 (protein)
chain: STAIAQEGAAPAAILHPEKWPRPATQRLIDPAVEKRVDALLKQLSVEEKVGQVIQGDIGTITPEDLRKYPLGSILAGGDSGPNGDDRAPPKEWLDLADAFYRVSLEKRPGHTPIPVLFGIDAVHGHGKIGSATIFPHNIALGMTRDPELLRRIGEVTAEEMAATGIDWTFAPCLSVVRDDRWGRTYEGFSEDPEIVAAYSAAIVEGVQGKFGSKDFMAPGRIVASAKHFLADGGTDQGRDQGDARISEDELIRIHNAGYPPAIDAGVLTVMASFSSWQGIKHHGHKQLLTDVLKGQMGFNGFIVGDWNAHDQVPGCTKFNCPTSLIAGLDMYMAADSWKQLYENTLAQVKDGTIPMARLDDAVRRILRVKVLAGLFEKPAPKDRPGLPGLETLGSPEHRAVGREAVRKSLVLLKNDKGTLPLSPKARVLVAGDGADNIGKQSGGWTISWQGTGNRNDEFPGATSILGGIRDAVADAGGSVEFDVAGQYKTKPDVAIVVFGEEPYAEFQGDVETLEYQPDQKQDLALLKKLKDQGIPVVAVFLSGRPMWVNPELNASDAFVAAWLPGTEGGGVADVLFTDKAGKVQHDFAGKLSYSWPRTAAQTTVNRGDADYNPLFAYGYGLTYKDKSKVGTLPEESGVPAEARQNAGIYFRAGALRLPGRFL
For B1, the “Fold improvement over Control Variant No. 5 from Table 2A” value was “+++ (+++ = 6 to 13 fold improvement over control Variant No. 2)”.

B2: 113 (protein)
chain: STAIAQEGAAPAAILHPEKWPRPATQRLIDPAVEKRVDALLKQLSVEEKVGQVIQGDIGTITPEDLRKYPLGSILAGGNSGPNGDDRAPPKEWLDLADAFYRVSLEKRPGHTPIPVLFGIDAVHGHGKIGSATIFPHNIALGMTRDPELLRRIGEVTAQEMAATGIDWTFAPALSVVRDDRWGRTYEGFSEDPEIVAAYSPAIVEGVQGKYGSKDFMAPGRIVACAKHFLADGGTDQGRDQGDARISEDELIRIHNAGYPPAIDAGVLTVMASFSSWQGIKHHGHKQLLTDVLKGQMGFNGFIVGDWNAHDQVPGCTKFNCPTSLIAGLDMYMAADSWKQLYENTLAQVKDGTIPMARLDDAVRRILRVKVLAGLFEKPAPKDRPGLPGLETLGSPEHRAVGREAVRKSLVLLKNDKGTLPLSPKARVLVAGDGADNIGKQSGGWTISWQGTGNRNDEFPGATSILGGIRDAVADAGGSVEFDVAGQYKTKPDVAIVVFGEEPYAEFQGDVETLEYQPDQKQDLALLKKLKDQGIPVVAVFLSGRPMWVNPELNASDAFVAAWLPGTEGGGVADVLFTDKAGKVQHDFAGKLSYSWPRTAAQTTVNRGDADYNPLFAYGYGLTYKDKSKVGTLPEESGVPAEARQNAGIYFRAGALRLPGRFL
With B2 the “Fold improvement over Control Variant No. 5 from Table 2A” value was “+++ (+++ = 6 to 13 fold improvement over control Variant No. 2)”.

B3: 115 (protein)
chain: STAIAQEGAAPAAILHPEKWPRPATQRLIDPAVEKRVDALLKQLSVEEKVGQVIQGDIGTITPEDLRKYPLGSILAGGDSGPNGDDRAPPKEWLDLADAFYRVSLEKRPGHTPIPVLFGIDAVHGHGKIGSATIFPHNIALGATRDPELLRRIGEVTAVEMATTGIDWTFAPCLSVVRDDRWGRTYEGFSEDPEIVAAYSPAIVEGVQGKYGSKDFMAPGRIVACAKHFLADGGTDQGRDQGDARISEDELIRIHNAGYPPAIDAGVLTVMASFSSWQGIKHHGHKQLLTDVLKGQMGFNGFIVGDWNAHDQVPGCTKFNCPTSLIAGLDMYMAADSWKQLYENTLAQVKDGTIPMARLDDAVRRILRVKVLAGLFEKPAPKDRPGLPGLETLGSPEHRAVGREAVRKSLVLLKNDKGTLPLSPKARVLVAGDGADNIGKQSGGWTISWQGTGNRNDEFPGATSILGGIRDAVADAGGSVEFDVAGRYKTKPDVAIVVFGEEPYAEFQGDVETLEYQPDQKQDLALLKKLKDQGIPVVAVFLSGRPMWVNPELNASDAFVAPWLPGTEGGGVADVLFTDKAGKVQHDFAGKLSYSWPRTAAQTTVNRGDADYNPLFAYGYGLTYKDKSKVGTLPEESGVPAEARQNAGIYFRAGALRLPGRFL
In the case of B3, the “Fold improvement over Control Variant No. 5 from Table 2A” value is reported as “++ (++ = 1.1 to 6 fold improvement over control Variant No. 2)”.

B4: 114 (protein)
chain: STAIAQEGAAPAAILHPEKWPRPATQRLIDPAVEKRVDALLKQLSVEEKVGQVIQGDIGTITPEDLRKYPLGSILAGGDSGPNGDDRAPPKEWLDLTDAFYRVSLEKRPGHTPIPVLFGIDAVHGHGKIGSATIFPHNIALGMTRDPELLRRIGEVTAEEMAATGIDWTFAPCLSVVRDDRWGRTYEGFSEDPEIVAAYSAAIVEGVQGKYGSKDFMAPGRIVASAKHFLADGGTDQGRDQGDARISEDELIRIHNAGYPPAIDAGVLTVMASFSSWQGIKHHGHKQLLTDVLKGQMGFNGFIVGDWNAHDQVPGCTKFNCPTSLIAGLDMYMAADSWKQLYENTLAQVKDGTIPMARLDDAVRRILRVKVLAGLFEKPAPKDRPGLPGLETLGSPEHRAVGREAVRKSLVLLKNDKGTLPLSPKARVLVAGDGADNIGKQSGGWTISWQGTGNRNDEFPGATSILGGIRDAVADAGGSVEFDVAGQYKTKPDVAIVVFGEEPYAEFRGDVETLEYQPDQKQDLALLKKLKDQGIPVVAVFLSGRPMWVNPELNASDAFVAAWLPGTEGGGVADVLFTDKAGKVQHDFAGKLSYSWPRTAAQTTVNRGDADYNPLFAYGYGLTYKDKSKVGTLPEESGVPAEARQNAGIYFRAGALRLPGRFL
With B4 the “Fold improvement over Control Variant No. 5 from Table 2A” value was “+++ (+++ = 6 to 13 fold improvement over control Variant No. 2)”.

B5: 108 (protein)
chain: STAIAQEGAAPAAILHPEKWPRPATQRLIDPAVEKRVDALLKQLSVEEKVGQVIQGDIGTITPEDLRKYPLGSILAGGNSGPNGDDRAPPKEWLDLADAFYRVSLEKRPGHTPIPVLFGIDAVHGHGNIGSATIFPHNIALGATRDPELLRRIGEVTAVEMAATGIDWTFAPALSVVRDDRWGRTYEGFSEDPEIVAAYSAAIVEGVQGKFGSKDFMAPGRIVASAKHFLADGGTDQGRDQGDARISEDELIRIHNAGYPPAIDAGVLTVMASFSSWQGIKHHGHKQLLTDVLKGQMGFNGFIVGDWNAHDQVPGCTKFNCPTSLIAGLDMYMAADSWKQLYENTLAQVKDGTIPMARLDDAVRRILRVKVLAGLFEKPAPKDRPGLPGLETLGSPEHRAVGREAVRKSLVLLKNDKGTLPLSPKARVLVAGDGADNIGKQSGGWTISWQGTGNRNDEFPGATSILGGIRDAVADAGGSVEFDVAGQYKTKPDVAIVVFGEEPYAEFQGDVETLEYQPDQKQDLALLKKLKDQGIPVVAVFLSGRPMWVNPELNASDAFVAAWLPGTEGGGVADVLFTDKAGKVQHDFAGKLSYSWPRTAAQTTVNRGDADYNPLFAYGYGLTYKDKSKVGTLPEESGVP
For B5, the “Fold improvement over Control Variant No. 5 from Table 2A” value was “++ (++ = 1.1 to 6 fold improvement over control Variant No. 2)”.

B6: 111 (protein)
chain: STAIAQEGAAPAAILHPEKWPRPATQRLIDPAVEKRVDALLKQLSVEEKVGQVIQGDIGTITPEDLRKYPLGSILAGGNSGPNGDDRAPPKEWLDLADAFYRVSLEKRPGHTPIPVLFGIDAVHGHGNIGSATIFPHNIALGATRDPELLRRIGEVTAVEMAATGIDWTFAPALSVVRDDRWGRTYEGFSEDPEIVAAYSAAIVEGVQGKFGSKDFMAPGRIVASAKHFLADGGTDQGRDQGDARISEDELIRIHNAGYPPAIDAGVLTVMASFSSWQGIKHHGHKQLLTDVLKGQMGFNGFIVGDWNAHDQVPGCTKFNCPTSLIAGLDMYMAADSWKQLYENTLAQVKDGTIPMARLDDAVRRILRVKVLAGLFEKPAPKDRPGLPGLETLGSPEHRAVGREAVRKSLVLLKNDKGTLPLSPKARVLVAGDGADNIGKQSGGWTISWQGTGNRNDEFPGATSILGGIRDAVADAGGSVEFDVAGQYKTKPDVAIVVFGEEPYAEFQGDVETLEYQPDQKQDLALLKKLKDQGIPVVAVFLSGRPMWVNPELNASDAFVAAWLPGTEGGGVADVLFTDKAGKVQHDFAGKLSYSWPRTAAQTTVNRGDADYNPLFAYGYGLTYKDKSKVGTLPEESGVPAEARQNAGIYFR
With B6 the “Fold improvement over Control Variant No. 5 from Table 2A” value was “++ (++ = 1.1 to 6 fold improvement over control Variant No. 2)”.

B7: 109 (protein)
chain: STAIAQEGAAPAAILHPEKWPRPATQRLIDPAVEKRVDALLKQLSVEEKVGQVIQGDIGTITPEDLRKYPLGSILAGGNSGPNGDDRAPPKEWLDLADAFYRVSLEKRPGHTPIPVLFGIDAVHGHGNIGSATIFPHNIALGATRDPELLRRIGEVTAVEMAATGIDWTFAPALSVVRDDRWGRTYEGFSEDPEIVAAYSAAIVEGVQGKFGSKDFMAPGRIVASAKHFLADGGTDQGRDQGDARISEDELIRIHNAGYPPAIDAGVLTVMASFSSWQGIKHHGHKQLLTDVLKGQMGFNGFIVGDWNAHDQVPGCTKFNCPTSLIAGLDMYMAADSWKQLYENTLAQVKDGTIPMARLDDAVRRILRVKVLAGLFEKPAPKDRPGLPGLETLGSPEHRAVGREAVRKSLVLLKNDKGTLPLSPKARVLVAGDGADNIGKQSGGWTISWQGTGNRNDEFPGATSILGGIRDAVADAGGSVEFDVAGQYKTKPDVAIVVFGEEPYAEFQGDVETLEYQPDQKQDLALLKKLKDQGIPVVAVFLSGRPMWVNPELNASDAFVAAWLPGTEGGGVADVLFTDKAGKVQHDFAGKLSYSWPRTAAQTTVNRGDADYNPLFAYGYGLTYKDKSKVGTLPEESGVPAEARQNAGIYFRAGALRLPGRF
With B7 the “Fold improvement over Control Variant No. 5 from Table 2A” value was “++ (++ = 1.1 to 6 fold improvement over control Variant No. 2)”.

B8: 110 (protein)
chain: STAIAQEGAAPAAILHPEKWPRPATQRLIDPAVEKRVDALLKQLSVEEKVGQVIQGDIGTITPEDLRKYPLGSILAGGNSGPNGDDRAPPKEWLDLADAFYRVSLEKRPGHTPIPVLFGIDAVHGHGNIGSATIFPHNIALGATRDPELLRRIGEVTAVEMAATGIDWTFAPALSVVRDDRWGRTYEGFSEDPEIVAAYSAAIVEGVQGKFGSKDFMAPGRIVASAKHFLADGGTDQGRDQGDARISEDELIRIHNAGYPPAIDAGVLTVMASFSSWQGIKHHGHKQLLTDVLKGQMGFNGFIVGDWNAHDQVPGCTKFNCPTSLIAGLDMYMAADSWKQLYENTLAQVKDGTIPMARLDDAVRRILRVKVLAGLFEKPAPKDRPGLPGLETLGSPEHRAVGREAVRKSLVLLKNDKGTLPLSPKARVLVAGDGADNIGKQSGGWTISWQGTGNRNDEFPGATSILGGIRDAVADAGGSVEFDVAGQYKTKPDVAIVVFGEEPYAEFQGDVETLEYQPDQKQDLALLKKLKDQGIPVVAVFLSGRPMWVNPELNASDAFVAAWLPGTEGGGVADVLFTDKAGKVQHDFAGKLSYSWPRTAAQTTVNRGDADYNPLFAYGYGLTYKDKSKVGTLPEESGVPAE
With B8 the “Fold improvement over Control Variant No. 5 from Table 2A” value was “++ (++ = 1.1 to 6 fold improvement over control Variant No. 2)”.
